Source: patent US20120135912A1 (PERSEID THERAPEUTICS, published 2012)
Several values for one entry are separate records, joined by “and”; a condition that tells them apart may be missing. Identical values can stand only once.

Key:
[1] = molecular target: T1, human LPAM-1-Fc (alpha4-Fc/beta7-Fc heterodimer) (human); experiment: SPR (BIACORE), retest with new polypeptide preparations and new LPAM-1-Fc
T1 construct: Soluble heterodimer from CHO cells, Protein A purified
Protocol: In this screening method, Biacore sensor chips were derivatized with anti-human IgG. After capture of VLA4-Fc or LPAM-1-Fc ligands on these surfaces, 2D-VCAM-1 variant polypeptides in buffer were allowed to flow over the ligand-coated sensor chips. The ability of a 2D-VCAM variant polypeptide to bind to a specific binding partner (i.e., VLA4-Fc or LPAM-1-Fc) was evaluated. Control protein (i.e., human 2D-VCAM-1 polypeptide (SEQ ID NO:2) or Q38L-2D-VCAM-1 polypeptide (SEQ ID NO:10)), was also allowed to flow over the ligand-coated sensor chips and the abilities of these molecules to bind to VLA4-Fc or LPAM-1-Fc were similarly evaluated for comparison. Using the Biacore system, the association (kₒₙ) and dissociation (koff) rate constant of the protein of interest binding to VLA4-Fc or LPAM-1-Fc ligands can be evaluated and used to calculate the equilibrium dissociation constant, KD. Variant 2D-VCAM-1 polypeptides having increased binding affinities for VLA4-Fc and/or LPAM-1-Fc, compared to human 2D-VCAM-1 and/or Q38L-2D-VCAM-1, were identified.
All BIACORE analyses were performed on a BIACORE 2000 system or BIACORE 3000 system (GE Healthcare) at room temperature (RT, 25° C.), HBS-P buffer (10 mM Hepes (pH 7.4), 150 mM NaCl, 0.005% surfactant P20) supplemented with 1 mM MnCl₂ (HBS-P-Mn) was used as the flow buffer for all experiments except where indicated.
Table 6B presents binding affinities of representative 2D-VCAM-1 variant polypeptides of the invention to LPAM-1-Fc when retested with new polypeptide preparations and new LPAM-1-Fc ligand and measured by the standard BICORE assay described above. The controls human 2D-VCAM-1 or the Q38L 2D-VCAM-1 polypeptide was not reassayed.

[2] = molecular target: T1, human LPAM-1-Fc (alpha4-Fc/beta7-Fc …); experiment: SPR (BIACORE), LPAM-1-Fc captured by anti-human IgG, 1 mM MnCl2, 1:1 Langmuir
Protocol: The kinetic 2D-VCAM-1 assay measures binding kinetics of a dimeric ligand (e.g., VLA-Fc fusion protein or LPAM-1-Fc fusion protein) coated to sensor chips and monomeric analyte (e.g., 2D-VCAM-1 variant polypeptides) in the mobile phase. Goat anti-human IgG antibody (Jackson ImmunoResearch, Catalog No. 105-005-098) was immobilized on CM-5 sensor chips (GE Healthcare, Catalog No. BR-1000-14) according to the manufacturer's protocol. Antibody was diluted to 30 μg/ml in immobilization buffer (10 mM sodium acetate, pH 5.0 (GE Healthcare, Catalog No. BR-1003-51)). […] Un-reacted sites were quenched with 35 μl of 1 M ethanolamine-HCl pH 8.5 (GE Healthcare, Catalog No. BR-1000-50). This procedure typically yielded 15,000 response units (RU) of coupled antibody. VLA4-Fc or LPAM-1-Fc, prepared as described in Examples 3 and 4, respectively, were bound to antibody-coated sensor chips by injection of 20 μl of ligand solution (20 μg/ml protein in HBS-P-Mn buffer at a flow rate of 10 μl/min). Ligand capture levels were typically 200-300 RU. 2D-VCAM-1 variant polypeptides were diluted in HBS-P-Mn and flowed over ligand-coated sensor chips for 2 min at 30 μl/min, followed by 5 min incubation with in HBS-P-Mn containing no protein at the same flow rate. For 2D-VCAM-1 variant polypeptides having very slow dissociation rates from VLA4-Fc or LPAM-1-Fc, kinetic assays were also conducted using longer dissociation times (e.g., 20 min). Rmax signal levels for 2D-VCAM-1 variant polypeptides ranged from approximately 5-25 RU. Regeneration between cycles was performed by 200 sec incubation with 10 mM glycine buffer (pH 1.7) at 50 μl/min. New chips were subjected to 4-5 cycles of capture/binding/regeneration prior to use in actual experiments. Data from a reference cell containing goat anti-human IgG capture antibody alone was subtracted from data obtained from flow cells containing captured VLA4-Fc or LPAM-1-Fc. Typically, 8 dilutions of 2D-VCAM-1 variant polypeptides ranging from 150 nM to 0.069 nM were analyzed against a blank reference (HBS-P-Mn buffer alone).

[3] = molecular target: human VLA4 (integrin alpha4beta1) on the surface of U937 cells (human, UniProt P13612 34-1032; P05556 21-798); experiment: cell-based or functional assay
[4] = molecular target: T2, human VLA4-Fc (alpha4-Fc/beta1-Fc heterodimer) (human); experiment: SPR (BIACORE), retest with new polypeptide preparations and new VLA4-Fc; retested with new polypeptide preparations and new VLA-Fc ligand (Table 5B)
T2 construct: Soluble heterodimer from CHO cells, Protein A purified; also called VLA-Fc
Protocol: The kinetic 2D-VCAM-1 assay measures binding kinetics of a dimeric ligand (e.g., VLA-Fc fusion protein or LPAM-1-Fc fusion protein) coated to sensor chips and monomeric analyte (e.g., 2D-VCAM-1 variant polypeptides) in the mobile phase. Goat anti-human IgG antibody (Jackson ImmunoResearch, Catalog No. 105-005-098) was immobilized on CM-5 sensor chips (GE Healthcare, Catalog No. BR-1000-14) according to the manufacturer's protocol. Antibody was diluted to 30 μg/ml in immobilization buffer (10 mM sodium acetate, pH 5.0 (GE Healthcare, Catalog No. BR-1003-51)). […] Un-reacted sites were quenched with 35 μl of 1 M ethanolamine-HCl pH 8.5 (GE Healthcare, Catalog No. BR-1000-50). This procedure typically yielded 15,000 response units (RU) of coupled antibody. VLA4-Fc or LPAM-1-Fc, prepared as described in Examples 3 and 4, respectively, were bound to antibody-coated sensor chips by injection of 20 μl of ligand solution (20 μg/ml protein in HBS-P-Mn buffer at a flow rate of 10 μl/min). Ligand capture levels were typically 200-300 RU. […] Typically, 8 dilutions of 2D-VCAM-1 variant polypeptides ranging from 150 nM to 0.069 nM were analyzed against a blank reference (HBS-P-Mn buffer alone).

Chain of human VLA4 (integrin alpha4beta1) on the surface of U937 cells (P13612 34-1032, chain 1 of 2): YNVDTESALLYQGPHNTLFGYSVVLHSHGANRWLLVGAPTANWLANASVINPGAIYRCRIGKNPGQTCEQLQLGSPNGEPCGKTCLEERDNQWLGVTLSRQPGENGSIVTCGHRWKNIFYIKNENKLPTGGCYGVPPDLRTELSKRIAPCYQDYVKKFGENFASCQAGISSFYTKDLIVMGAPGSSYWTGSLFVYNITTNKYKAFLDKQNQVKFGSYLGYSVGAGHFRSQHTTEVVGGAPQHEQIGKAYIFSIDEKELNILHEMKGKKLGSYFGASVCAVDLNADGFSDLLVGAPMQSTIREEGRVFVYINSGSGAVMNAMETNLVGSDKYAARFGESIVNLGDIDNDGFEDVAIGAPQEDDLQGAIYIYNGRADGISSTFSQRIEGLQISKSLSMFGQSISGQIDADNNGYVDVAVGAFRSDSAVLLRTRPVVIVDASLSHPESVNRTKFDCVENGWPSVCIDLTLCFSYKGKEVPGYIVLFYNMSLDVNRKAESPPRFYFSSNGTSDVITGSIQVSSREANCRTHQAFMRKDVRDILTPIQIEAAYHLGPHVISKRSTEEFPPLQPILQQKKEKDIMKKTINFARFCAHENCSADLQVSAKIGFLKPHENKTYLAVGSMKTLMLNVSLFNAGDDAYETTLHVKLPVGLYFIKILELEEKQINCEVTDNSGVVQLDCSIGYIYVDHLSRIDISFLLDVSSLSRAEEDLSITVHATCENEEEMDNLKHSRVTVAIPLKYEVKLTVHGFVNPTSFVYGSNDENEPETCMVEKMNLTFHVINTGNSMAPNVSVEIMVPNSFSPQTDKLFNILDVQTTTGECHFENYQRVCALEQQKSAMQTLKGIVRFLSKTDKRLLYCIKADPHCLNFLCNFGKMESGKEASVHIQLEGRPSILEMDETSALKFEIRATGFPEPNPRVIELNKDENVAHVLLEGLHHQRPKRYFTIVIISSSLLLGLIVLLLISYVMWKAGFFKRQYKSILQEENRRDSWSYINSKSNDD
Chain of human VLA4 (integrin alpha4beta1) on the surface of U937 cells (P05556 21-798, chain 2 of 2): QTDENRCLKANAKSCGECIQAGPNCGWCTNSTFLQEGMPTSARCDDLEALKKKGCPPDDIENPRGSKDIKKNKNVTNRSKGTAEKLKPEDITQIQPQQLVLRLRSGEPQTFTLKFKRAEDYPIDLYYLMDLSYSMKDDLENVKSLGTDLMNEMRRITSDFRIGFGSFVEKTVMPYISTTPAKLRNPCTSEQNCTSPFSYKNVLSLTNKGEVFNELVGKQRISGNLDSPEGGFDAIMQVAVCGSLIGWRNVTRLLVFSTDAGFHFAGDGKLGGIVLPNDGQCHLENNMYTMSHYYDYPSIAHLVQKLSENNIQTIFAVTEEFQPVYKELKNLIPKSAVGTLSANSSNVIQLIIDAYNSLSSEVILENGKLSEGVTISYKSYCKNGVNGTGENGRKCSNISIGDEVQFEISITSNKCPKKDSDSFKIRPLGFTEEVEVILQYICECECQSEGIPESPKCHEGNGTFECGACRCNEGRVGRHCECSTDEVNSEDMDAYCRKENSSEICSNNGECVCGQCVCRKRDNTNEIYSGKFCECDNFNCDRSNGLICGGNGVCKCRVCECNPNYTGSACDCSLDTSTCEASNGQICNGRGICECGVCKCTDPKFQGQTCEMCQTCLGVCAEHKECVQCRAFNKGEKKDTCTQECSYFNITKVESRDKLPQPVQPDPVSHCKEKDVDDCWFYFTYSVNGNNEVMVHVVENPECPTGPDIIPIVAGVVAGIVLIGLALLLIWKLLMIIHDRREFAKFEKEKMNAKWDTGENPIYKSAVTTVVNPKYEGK
T1 sequence (chain, as listed by the source limits assumed, chain 1 of 2): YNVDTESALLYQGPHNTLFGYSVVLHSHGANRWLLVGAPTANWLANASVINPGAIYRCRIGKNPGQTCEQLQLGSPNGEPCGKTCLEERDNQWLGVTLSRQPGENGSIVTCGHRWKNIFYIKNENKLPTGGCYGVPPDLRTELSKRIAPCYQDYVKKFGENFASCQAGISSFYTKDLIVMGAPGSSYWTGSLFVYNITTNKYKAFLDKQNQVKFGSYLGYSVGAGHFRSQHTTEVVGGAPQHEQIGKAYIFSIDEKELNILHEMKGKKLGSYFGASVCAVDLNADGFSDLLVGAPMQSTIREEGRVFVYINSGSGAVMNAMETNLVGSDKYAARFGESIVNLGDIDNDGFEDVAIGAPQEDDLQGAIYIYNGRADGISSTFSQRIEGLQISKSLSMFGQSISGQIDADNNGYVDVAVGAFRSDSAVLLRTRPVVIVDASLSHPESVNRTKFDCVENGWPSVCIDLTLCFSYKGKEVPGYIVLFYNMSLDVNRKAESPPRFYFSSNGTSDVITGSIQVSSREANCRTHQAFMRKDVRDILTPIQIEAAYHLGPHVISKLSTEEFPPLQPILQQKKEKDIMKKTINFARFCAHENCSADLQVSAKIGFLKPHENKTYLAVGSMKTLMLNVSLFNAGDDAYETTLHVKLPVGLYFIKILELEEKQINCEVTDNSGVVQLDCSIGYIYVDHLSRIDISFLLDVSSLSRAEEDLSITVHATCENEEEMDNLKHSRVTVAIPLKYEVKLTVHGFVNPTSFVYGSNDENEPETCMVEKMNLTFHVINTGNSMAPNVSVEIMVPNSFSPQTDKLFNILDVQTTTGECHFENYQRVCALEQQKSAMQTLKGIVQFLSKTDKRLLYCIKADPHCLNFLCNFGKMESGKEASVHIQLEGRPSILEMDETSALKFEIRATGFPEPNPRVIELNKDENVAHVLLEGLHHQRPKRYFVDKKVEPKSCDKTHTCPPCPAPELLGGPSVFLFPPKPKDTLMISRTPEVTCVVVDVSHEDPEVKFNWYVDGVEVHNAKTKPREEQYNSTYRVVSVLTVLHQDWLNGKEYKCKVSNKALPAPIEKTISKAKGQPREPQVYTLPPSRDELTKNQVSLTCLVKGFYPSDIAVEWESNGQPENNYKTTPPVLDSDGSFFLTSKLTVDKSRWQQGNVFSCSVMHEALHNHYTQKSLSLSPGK
T1 sequence (chain, as listed by the source limits assumed, chain 2 of 2): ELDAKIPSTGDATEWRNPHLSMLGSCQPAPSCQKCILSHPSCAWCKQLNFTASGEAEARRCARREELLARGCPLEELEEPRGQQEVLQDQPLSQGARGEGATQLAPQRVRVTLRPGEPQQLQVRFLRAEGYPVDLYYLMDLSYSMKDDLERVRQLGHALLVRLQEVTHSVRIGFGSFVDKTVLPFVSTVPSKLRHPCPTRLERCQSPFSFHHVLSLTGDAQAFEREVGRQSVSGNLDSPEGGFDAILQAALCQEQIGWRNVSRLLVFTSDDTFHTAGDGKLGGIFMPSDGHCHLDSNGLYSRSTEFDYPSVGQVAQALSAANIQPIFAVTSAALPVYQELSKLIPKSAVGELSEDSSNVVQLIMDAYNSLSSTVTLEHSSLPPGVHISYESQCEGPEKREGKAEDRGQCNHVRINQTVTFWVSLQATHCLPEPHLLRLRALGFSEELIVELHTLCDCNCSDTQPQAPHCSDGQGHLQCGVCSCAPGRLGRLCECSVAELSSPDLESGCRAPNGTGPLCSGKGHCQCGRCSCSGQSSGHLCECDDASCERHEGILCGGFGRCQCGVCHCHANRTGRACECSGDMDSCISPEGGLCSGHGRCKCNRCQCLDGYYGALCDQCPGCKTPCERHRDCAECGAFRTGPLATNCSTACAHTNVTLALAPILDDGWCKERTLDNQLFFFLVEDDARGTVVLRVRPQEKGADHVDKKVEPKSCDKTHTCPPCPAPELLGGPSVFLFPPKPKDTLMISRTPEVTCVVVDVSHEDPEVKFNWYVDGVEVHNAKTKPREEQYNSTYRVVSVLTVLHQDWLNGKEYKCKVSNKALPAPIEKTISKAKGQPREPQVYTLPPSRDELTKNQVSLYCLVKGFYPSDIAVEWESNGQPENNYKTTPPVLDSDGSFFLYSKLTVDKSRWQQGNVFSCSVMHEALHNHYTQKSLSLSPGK
T2 sequence (chain, as listed by the source limits assumed, form in doubt, chain 1 of 2): as the sequence (chain, as listed by the source limits assumed, chain 1 of 2) above
T2 sequence (chain, as listed by the source limits assumed, form in doubt, chain 2 of 2): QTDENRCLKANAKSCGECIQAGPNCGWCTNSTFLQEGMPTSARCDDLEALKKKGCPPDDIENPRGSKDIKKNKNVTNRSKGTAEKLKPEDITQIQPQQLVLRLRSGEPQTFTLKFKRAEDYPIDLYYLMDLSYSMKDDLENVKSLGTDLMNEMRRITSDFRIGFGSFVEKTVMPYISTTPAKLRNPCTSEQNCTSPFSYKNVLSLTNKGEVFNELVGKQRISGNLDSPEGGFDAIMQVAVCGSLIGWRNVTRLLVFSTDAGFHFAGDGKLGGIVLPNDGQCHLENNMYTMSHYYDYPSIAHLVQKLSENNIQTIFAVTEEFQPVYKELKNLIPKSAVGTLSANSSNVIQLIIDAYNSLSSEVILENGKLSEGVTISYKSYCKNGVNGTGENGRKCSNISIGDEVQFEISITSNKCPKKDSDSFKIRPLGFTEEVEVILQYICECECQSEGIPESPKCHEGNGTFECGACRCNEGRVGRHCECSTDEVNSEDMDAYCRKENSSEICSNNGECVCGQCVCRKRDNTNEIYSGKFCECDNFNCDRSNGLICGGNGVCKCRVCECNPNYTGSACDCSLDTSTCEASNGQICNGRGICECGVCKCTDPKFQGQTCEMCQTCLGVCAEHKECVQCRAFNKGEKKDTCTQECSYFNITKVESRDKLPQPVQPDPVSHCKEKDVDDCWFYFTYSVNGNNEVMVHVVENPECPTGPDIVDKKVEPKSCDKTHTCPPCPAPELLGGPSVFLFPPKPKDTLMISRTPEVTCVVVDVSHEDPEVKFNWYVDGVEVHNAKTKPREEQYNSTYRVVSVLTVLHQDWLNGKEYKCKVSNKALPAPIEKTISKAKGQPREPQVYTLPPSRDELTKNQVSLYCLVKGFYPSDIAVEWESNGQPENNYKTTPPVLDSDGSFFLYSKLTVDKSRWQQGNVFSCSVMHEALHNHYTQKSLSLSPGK

Binder	Kd [1] [nM]	Kd [2] [nM]	binding affinity for LPAM-1-Fc relative to human 2D-VCAM-1 [2] [fold]	IC50 of inhibition of U937 cell adhesion to immobilized 7D-VCAM-1 [3]	Kd [4] [nM]
2D-VCAM-1 variant Clone 46 (ligand, also called Clone 046; not shown: His tag) FKIETTPESRYLAQIGDSVSLTCSTTGCESPFFSWRPQLDAPLNGKVTNEGTTSTLTMNPVSFGNEHSYLCTATCESRKLEKGIQVEIYSFPKDPEIHLSGPLEAGKPITVKCSVADVYPFDRLEIDLLKGDHLMKSQEFLEDADRKSLETKSLEVTFTPVIEDIGKVLVCRAKLHIDEMDSVPTVRQAVKELQVYISP	77	27.2	9	6.4 nM and 0.16 mg/ml	–
2D-VCAM-1 variant Clone 47 (ligand, also called Clone 047; not shown: His tag) FKIETTPESRYLAQIGDSVSLTCSTTGCESPFFSWRPLLDSPLNGKVTNEGTTSTLTMNPVSFGNEHSYLCTATCESRKLEKGIQVEIYSFPKDPEIHLSGPLEAGKPITVKCSVADVYPFDRLEIDLLKGDHLMKSQEFLEDADRKSLETKSLEVTFTPVIEDIGKVLVCRAKLHIDEMDSVPTVRQAVKELQVYISP	40	6.54	38	–	–
2D-VCAM-1 variant Clone 59 (ligand, also called Clone 059; not shown: His tag) FKIETTPESRYLAQIGDSVSLTCSTTGCESPFFSWRPLLDSPLNGKVTNEGTTSTLTMNPVSFGNEHSYLCTATCESRKLEKGIQVEIYSFPKDPEIHLSGPLEAGKPITVKCSVADVYPFDRLEIDLLKGDHLMKSQEFFEDAAWKSLETKSLEVTFTPVIEDIGKVLVCRAKLHIDEMDSVPTVRQAVKELQVYISP	2.6	0.405	612	–	–
2D-VCAM-1 variant Clone 146 (ligand, not shown: small tags and cut ends) FKIETTPESRYLAQIGDSVSLTCSTTGCESPLFFWRPLLDSPLNGKVTNEGTTSTLTMNPVSFGNEHSYLCTARCESRSLEKGIQVEIYSFPKDPEIHLSGPLEAGKPITVKCSVADVYPFDRLEIDLLKGDHLMKSQEFLEDADRKSLETKSLEVTFTPVIEDIGKVLVCRAKLHIDEMDSVPTVRQAVKELQVYISP	1.2	0.439	565	0.8 nM and 0.02 mg/ml	0.018
Q38L-2D-VCAM-1 (ligand, also called Q38L 2D-VCAM-1 polypeptide; not shown: His tag) FKIETTPESRYLAQIGDSVSLTCSTTGCESPFFSWRTLIDSPLNGKVTNEGTTSTLTMNPVSFGNEHSYLCTATCESRKLEKGIQVEIYSFPKDPEIHLSGPLEAGKPITVKCSVADVYPFDRLEIDLLKGDHLMKSQEFLEDADRKSLETKSLEVTFTPVIEDIGKVLVCRAKLHIDEMDSVPTVRQAVKELQVYISP	–	20.5	12	–	–
